In assay [1] the target is HLA-A*3002 (human). The assay can be described thus: inhibition of 125I-labelled probe peptide binding to purified HLA, gel filtration; standard peptide.
In assay [2] the target is HLA-A*3002 (human). Description: inhibition of 125I-labelled probe peptide binding to purified HLA, gel filtration; standard peptide (allele listed again under supertype A24).
For assay [3], the target named is HLA-A*0101 (human). Description: inhibition of 125I-labelled probe peptide binding to purified HLA, gel filtration; standard peptide.
For assay [4], the target named is HLA-A*2902 (human). The assay is described as above.
Assay [5] has as its target HLA-A*2902 (human). Description: inhibition of 125I-labelled probe peptide binding to purified HLA, gel filtration; standard peptide (allele listed again under supertype A24).
In assay [6] the target is T1, HLA-DRB1*0901 (human).
T1 chain 1: not shown
T1 chain 2: not shown

B1: standard peptide … (peptide)
peptide: RISGVDRYY
modifications: not checked
For the molecule B1, the IC50 in assay [1] and in assay [2] was 3 nM throughout.

B2: standard peptide … (peptide)
peptide: YTAVVPLVY
modifications: not checked
Consider B2, for which the IC50 in assay [3], in assay [4] and in assay [5] was 5 nM throughout.

B3: standard peptide … (peptide)
peptide: AKFVAAWTLKAAA
modifications: not checked
As to B3, the IC50 in assay [6] came to 75 nM. In other words, the double-digit nanomolar range.

The values are drawn from patent publication US20070014810A1, “Inducing cellular immune responses to human papillomavirus using peptide and nucleic acid compositions” (priority 2003, published 2007).
